Reference: publication PMC8626583, “Collagen’s primary structure determines collagen:HSP47 complex stoichiometry” (The Journal of Biological Chemistry, 2021)

Target: collagen model peptide Ac-(PPG)2PTGPRG(PPG)2-NH2
Assay: crystal structure; HSP47 H273N/H274N with Ac-(PPG)2PTGPRG(PPG)2-NH2, space group P2_(1); crystallization conditions not told

- stoichiometry N (HSP47 per collagen triple helix): 2
Substance: HSP47 double-mutant H273N/H274N (natural protein)
